Data: the RNAGym collection of RNA variant scans (doi:10.1073/pnas.2313332121)
This sample holds only a part of the variants without activity.

B1: TPR 5TU (parent)
chain: GGAUCUUCUCGAUCUAACAAAAAAGACAAAUCUGCCACAAAGCUUGAGAGCAUCUUCGGAUGCAGAGGCGGCAGCCUUCGGUGGCGCGAUAGCGCCAACGUUCUCAACUAUGACACGCAAAACGCGUGCUCCGUUGAAUGGAGUUUAUCAUG

Variants of: B1
Experiment: polymerase ribozyme fitness, log enrichment relative to wild type (log ratio); higher = more active; in vitro selection for triplet polymerase activity
How it was run: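 Mutant libraries of each subunit of a heterodimeric triplet polymerase ribozyme were built by PCR and transcribed. Each library went through one round of in vitro selection in triplicate: annealing with biotinylated primer, partner subunit and triplets, frozen incubation at −7 °C, gel excision of extended constructs, streptavidin-bead capture and RT-PCR. Input and output libraries were Illumina-sequenced; only genotypes with ≥10 input reads and ≥1 read per output were kept. Fitness is log2(genotype enrichment/wild-type enrichment), using inverse-variance-weighted replicate averages.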

Variant	polymerase ribozyme fitness (log ratio)
G83A G128A	-3.83
G80A G83A A106U C116G U139C G143A	≤ -4.2
C79U A150C	≤ -4.2
C79U G88C C93A G136U G143C	≤ -4.2
G80C G92U C96U U135G A150G	≤ -4.2
U82G C99G	-0.787
G83C G84U C87U U102G A107U	≤ -4.2
G81C G141C	-0.0339
G83C C116A U146G	-3.27
G80C C95U C118G	≤ -4.2
C79A C96A	-4.03
C79A C96G	≤ -4.2
G81A C118A U148C	-2.6
G83C C125A G136U	-2.54
G80A C85A A142C	-2.14
U82C G83A C103U	-0.585
G81A C93U C95U	-1.11
G83A A98U	-0.299
G81C G126C U145C	0.873
C79G G124U U139C	≤ -4.2
G81C C93U U130G C131U A150U	≤ -4.2
G80A U146G U148C	-3.91
G83C G133A	-3.62
U82G G86U C123U	-1.47

Variant	polymerase ribozyme fitness (log ratio)
G80C C87U	≤ -4.2
G80A C93U	-1.6
G81A C85U A91U G124C U134A	≤ -4.2
G81C C95A U134A U144C	-2.86
G80C G83U C118A G141C	-3.94
G83C C93U C96A	-1.71
G80C G86U G94C A137C	≤ -4.2
G83A A142G U148A	-4.11
U82C U135C U146C	-2.14
C79U G84A	-3.04
U82G C96G C118U G141A A147U	-1.93
U82G G141U	1.45
G83C C95G U148G	≤ -4.2
C79G U101G U109G U135C U148A	≤ -4.2
G83A C85U A106C C132G G140A	≤ -4.2
U82A G86A A98U U134A	-3.68
C79G C125U A142C U148C U151G	≤ -4.2
G83A C95U	-0.657
G83A C95G	-1.23
G81A C85A	0.102
G80A U144G	1.27
C79G C95U	-3.03
G81C G143C	-2.03
G80A G141A	-0.333

Variant	polymerase ribozyme fitness (log ratio)
C79U U90A A106U	≤ -4.2
U82G G92A	-2.96
G83C C85G C103A	≤ -4.2
G83A C93U	-1.36
G83C C96U A147U G152A	-1.98
G80C C85U A97C C99A G141U	-3.93
G80A A91C G94A	-4.16
U82G C118G	-1.09
G80A C93U U102A	-3.01
C79A A106G U146G	≤ -4.2
G83A U102C C103G U145G	≤ -4.2
U82G A98G G117A A122U	0.376
U82A A120C U130C G143U	-2.44
G80A G124A	0.289
G83A G86U C118U	-3.81
U82G G84U C99U G128C	≤ -4.2
G83A U101C	-2.23
C79A C103G C131A	≤ -4.2
G83C C116A A121C	0.158
G80A C85U G136A G143C	-1.57
G83A A91U G100U	≤ -4.2
G83A C85U	-1.94
U82G C95G G126C	-1.07
G81A A91G C99G A120C	-4

Variant	polymerase ribozyme fitness (log ratio)
U78G U127C	≤ -4.2
G80U C118A A119G	-1.3
U82G C125G	-1.76
G81A A89C A119U C132G U135C G143C U148A	≤ -4.2
U82G G128U	-3.35
G81C	-0.471
G81A	-0.305
G81U	-0.702
U82G G84A G86U C118G	≤ -4.2
U82G A110G C125G A137U	≤ -4.2
C79G G81U G133A	≤ -4.2
G83A U104G A122U U134G	-3.23
C79G C87U G100U	-2.91
G83A C114U	-2.41
U82A U127C G152U	-3.97
U82A C93G	-3.41
G80U G84A G126C C132U U145A	-3.25
C79G G88U U134C A142U	≤ -4.2
G80C C87U U102G G124C U130A	≤ -4.2
G80U C125A	-1.04
U82G A121G	-0.49
G83A G117C U145G	-1.38
C79G A122C G140A	≤ -4.2
U82C C85U C114A	-3.22

Variant	polymerase ribozyme fitness (log ratio)
G83A G126C	0.173
G83A C85U A115U C116U	-2.68
G80A C132U	-0.678
G80A G81A A120C	-0.393
G83A G141U G143A	≤ -4.2
G81U C85A C95A	-1.06
U82C C95G	-2.63
G81A C87U G100C G133U G141U	≤ -4.2
G83A G141U	-0.659
G80C G83A A110U	≤ -4.2
U82C A115U G136C	-3.84
G81A A89C	-0.165
U82A A106U C116U G126U U145C	-2.88
G81C G86A	-1.83
G83C G126U	0.246
G83C G126A	0.0538
G80C C131G	-4.04
C79U G84A C108A C114A C118A U139G	≤ -4.2
G81U C96U	-1.85
G83A A119C A137G G143A	-2.54
C79U C108G U109G U139G U145C	≤ -4.2
C79U G92U	-1.44
C79A G80A G81A G88U	≤ -4.2
C79A C116A	-3.87

Variant	polymerase ribozyme fitness (log ratio)
C79A A91G A110G	≤ -4.2
U82C C114U	-1.99
G80C C95U C99A G133U	≤ -4.2
G81A G94C A106C A113U C116A G133A	≤ -4.2
C79U G140C	-4.1
U82G C96U A137C	-3.87
G83A A97C U104A G136A	-1.39
G80A G84A A120G	-1.33
C79A G86A	≤ -4.2
U82A C125G	-0.33
U82A C125A	-0.504
G81C A89U C96G	-0.784
U82C G94C C108A A110G A113G G140U	≤ -4.2
G81U G92U U148G G152A	-3.95
G81A C87U G100U A115U C116U	-4.04
G83A C87A	≤ -4.2
G81A C95A A98U	-0.289
G81C G140C	-3.7
U82C G84A A98U A115U G141A	-2.58
G81A A89U G112A G133U C149U	≤ -4.2
G83A C95U A106C A107G	-3.5
U82G C95A A110U A138U	≤ -4.2
C79G A98G G100C G124A	-2.18
G81C G126C	0.723

Variant	polymerase ribozyme fitness (log ratio)
C79A A91U A107C G124C U144C	≤ -4.2
G83A A97U	0.538
G83A A97G	-0.594
U82A A115U U135A	-2.53
G83C C125A U144A	-2.36
G83A C99U G143A A147U	-3.6
C79A U90G C95G C116A A119C G141U	≤ -4.2
G83C A89U G124U	-1.35
C79A C108U	-4.06
G80A A89G G117U	-1.48
U82A C103G A113U A137C U148A	≤ -4.2
U82G G86A A120G	-1.53
G81A C85A C149U	-0.877
G80A C85A	-0.619
G81U C93U G94U A98G C131A A137U	≤ -4.2
G81A G152U	-3.09
G81A G152C	-3.29
G80U U148C	-3.38
G83A C99U	-2.05
G83C G136A	-0.101
G83C G136C	-4.09
C79G G88C G92A C125G	≤ -4.2
G83C C125U U146G	-3.89
